A value given as a limit tells only on which side of the number the result lay.

Usually IC50 stands for the concentration that gives 50% inhibition. A low value points to greater potency in that assay.

The target of test [1] is T1, Porcine carboxypeptidase B (CPB) (Sus scrofa, UniProt P09955).
T1 construct: purchased Sigma (St. Louis, Mo.)
T1 sequence (P09955 111-416): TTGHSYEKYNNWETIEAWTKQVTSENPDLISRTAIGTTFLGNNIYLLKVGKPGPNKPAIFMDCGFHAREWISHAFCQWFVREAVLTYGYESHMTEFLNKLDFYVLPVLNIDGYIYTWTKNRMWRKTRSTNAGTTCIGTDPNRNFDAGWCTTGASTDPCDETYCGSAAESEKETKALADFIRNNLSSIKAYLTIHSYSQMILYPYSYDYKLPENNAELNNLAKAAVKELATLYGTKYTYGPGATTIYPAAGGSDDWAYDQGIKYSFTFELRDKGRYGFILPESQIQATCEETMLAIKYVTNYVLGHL
Briefly: Carboxypeptidase B assay, TR-FRET detection with [Eu3+]GST-PDZ, inhibition experiments. It is filed as biochemical. As to conditions: CPB 100 pM; substrate biotin-HRRSARYLESSVR-OH; quenched after 30 min; condition Dilution. As for the experimental part:
(§1) Assays were carried out in 96-well black, low binding, Microfluor2 plates (Dynex, Va.). Assay plates were read using a Victor^2V microplate analyzer (Perkin Elmer Wallac (Turku, Finland)), with 337 nm excitation. Fluorescence emission was measured at 665 nm for FRET signal and 615 nm for Eu^3+ chelate, and results are expressed as the ratio of fluorescence intensities, FI665nm/FI615 nm.
For the initial time courses, 20 μl of biotin-HRRSARYLESSVR-OH (SEQ. ID No. 7), (100 nM in 10 mM phosphate, 150 mM NaCl, 0.05% tween-20, 0.1% BSA (PBSTB)) was mixed with 20 μl of CPB (2× in PBSTB), and the reaction quenched with 10 μl of a 5×TR-FET mixture of PCI (1 μM, [Eu^3+]GST-PDZ (6.25 nM), and [X1665]SA (62.5 nM) in PBSTB, for 60 min, at 25° C., and read.
For the inhibition experiments, 2 Ill of inhibitor was added to 20 μl CPB (200 pM in PBSTB), and the reaction was initiated by addition of 20 μl peptide substrate (100 nM in PBSTB). The reaction was quenched after 30 min with the addition of 10 μl of 5×TR-FRET quenching/detection mixture, as described above. Background was measured from a reaction mixture with substrate, detection mixture and no enzyme.
For orientation: TR-FRET usually uses a lanthanide donor and a delayed reading to cut background.

In test [2] the target is T2, Protein phosphatase 2A1 (PP2A1) (Homo sapiens, UniProt P67775).
T2 construct: purchased Biomol Research Laboratories (Plymouth Meeting, Pa.)
In words: Protein phosphatase assay, TR-FRET detection with [Eu3+]GST-PDZ, inhibition experiments. As to conditions: PP2A1 15 pM; substrate biotin-HRRAARYLEpSAV-OH; quenched after 60 min; condition Dilution. Type of test: biochemical. As for the experimental part:
as §1
For the initial time courses, 20 μl of biotin-HRRAARYLEpSAV-OH (SEQ. ID No. 4) (100 nM in phosphatase buffer: 50 mM Tris, pH 7.4, 10% glycerol, 14 mM β-mercaptoethanol, 0.2 mg/ml BSA) was mixed with 20 μl of PP2A1 (2× in phosphatase buffer), and the reaction solution was incubated at 32° C. At different time points, 40 μl aliquots were quenched with […] of a 5×TR-FRET mixture of Cantharidic Acid (5 μM, [Eu^3+]GST-PDZ (1.6 nM), and [665]SA (15.6 nM) in PBSTB, for 60 min, at 25° C., and read.
For the inhibition experiments, 2 μl of inhibitor were added to 20 μl PP2A1 (30 pM in phosphatase buffer), and the reaction was initiated by addition of 20 μl of peptide substrate (100 nM in phosphatase buffer). The reaction was quenched after 60 min with the addition of 10 μl of 5×TR-FRET quenching/detection mixture, as described above. Background was measured from a reaction mixture with substrate, detection mixture and no enzyme.

Test [3] has as its target Biotin-…-OH. Briefly: TR-FRET, 4 nM product peptide plus 36 nM masked substrate biotin-…-NH2 (Asp-N pair); data not shown.
The target of test [4] is Biotin-…-OH. Briefly: TR-FRET, 4 nM product peptide plus 36 nM masked substrate biotin-…pSAV-OH; optimal [Eu3+]GST-PDZ 0.3 nM and [XL665]SA 3.1 nM.
Test [5] has as its target Biotin-…-OH. Briefly: TR-FRET, 4 nM product peptide plus 36 nM masked substrate biotin-…-OH (carboxypeptidase B pair); data not shown.
For test [6], the target named is Porcine carboxypeptidase B (porcine) (UniProt P09955). Briefly: cell-based or functional assay.

T2 sequence (P63151 whole entry): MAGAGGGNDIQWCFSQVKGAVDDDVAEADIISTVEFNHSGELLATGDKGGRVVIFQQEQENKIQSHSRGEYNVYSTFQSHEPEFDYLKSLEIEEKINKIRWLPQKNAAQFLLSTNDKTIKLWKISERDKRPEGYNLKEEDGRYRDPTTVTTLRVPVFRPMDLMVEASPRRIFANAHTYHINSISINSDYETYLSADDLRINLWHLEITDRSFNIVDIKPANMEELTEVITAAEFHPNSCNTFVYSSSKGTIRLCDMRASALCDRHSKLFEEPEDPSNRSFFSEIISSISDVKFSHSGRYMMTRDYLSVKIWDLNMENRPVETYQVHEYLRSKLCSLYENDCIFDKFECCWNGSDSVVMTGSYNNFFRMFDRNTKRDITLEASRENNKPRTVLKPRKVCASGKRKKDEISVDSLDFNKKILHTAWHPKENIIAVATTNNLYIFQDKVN
T2 sequence (P30153 whole entry, further chain): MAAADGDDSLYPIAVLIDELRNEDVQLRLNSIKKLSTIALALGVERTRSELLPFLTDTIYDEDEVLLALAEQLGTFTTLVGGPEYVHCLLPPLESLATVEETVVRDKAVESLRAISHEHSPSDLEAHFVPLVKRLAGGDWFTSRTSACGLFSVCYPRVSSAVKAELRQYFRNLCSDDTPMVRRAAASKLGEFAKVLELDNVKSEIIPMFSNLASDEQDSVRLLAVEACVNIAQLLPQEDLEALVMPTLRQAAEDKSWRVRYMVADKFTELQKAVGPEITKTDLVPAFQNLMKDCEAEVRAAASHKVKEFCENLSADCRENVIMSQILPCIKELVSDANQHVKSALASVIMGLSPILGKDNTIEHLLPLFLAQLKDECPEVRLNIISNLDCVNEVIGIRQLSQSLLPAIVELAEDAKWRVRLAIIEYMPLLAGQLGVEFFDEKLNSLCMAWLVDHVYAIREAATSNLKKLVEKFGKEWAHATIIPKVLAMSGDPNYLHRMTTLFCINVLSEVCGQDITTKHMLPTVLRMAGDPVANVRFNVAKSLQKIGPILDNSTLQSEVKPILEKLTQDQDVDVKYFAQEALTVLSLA
T2 sequence (P67775 whole entry): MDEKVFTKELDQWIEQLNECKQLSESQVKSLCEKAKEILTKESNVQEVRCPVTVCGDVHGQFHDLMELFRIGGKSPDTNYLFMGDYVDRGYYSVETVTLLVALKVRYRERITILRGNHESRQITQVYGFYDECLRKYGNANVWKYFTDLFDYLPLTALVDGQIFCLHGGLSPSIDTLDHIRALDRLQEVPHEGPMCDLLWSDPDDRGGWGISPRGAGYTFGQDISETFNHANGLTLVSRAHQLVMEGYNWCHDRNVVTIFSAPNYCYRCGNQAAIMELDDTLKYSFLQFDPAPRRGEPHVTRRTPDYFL

As for “PCI: potato carboxypeptidase inhibitor from Sigma; the abbreviation list calls it protein carboxypeptidase inhibitor (QQHADPICNKPCKTHDDCSGAWFCQACWNSARTCGPYVG)”, in test [1], the half-maximal inhibitory concentration (IC50) amounted to 10 nM. For the molecule `CC1(C(=O)O)C2CCC(O2)C1(C)C(=O)O` (stereo not shown) [Cantharidic Acid, cantharidic acid], the IC50 in test [2] came out at 56 nM. The same measure, in the same setting: under `C=C1[C@@H](O)[C@@H]2O[C@]3(CC[C@H](/C=C/[C@@H](C)[C@@H]4CC(C)=C[C@@]5(O[C@H](C[C@@](C)(O)C(=O)O)CC[C@H]5O)O4)O3)CC[C@H]2O[C@@H]1[C@@H](O)C[C@H](C)[C@H]1O[C@@]2(CCCCO2)CC[C@H]1C` [Okadaic Acid, okadaic acid] stands 0.015 nM. Take “[Eu3+]GST-PDZ (GST fused to PDZ module 3 of PSD-95, labeled with Eu3+ chelate ITC) (from UniProt P31016 300-402)”: the signal-to-background with Biotin-…-OH [3], in the test with Biotin-…-OH [4] and in the test with Biotin-…-OH [5] was above 10 fold in each case. Turning to “potato carboxypeptidase inhibitor (from UniProt P01075 1-39)”, the IC50 (inhibition of CPB hydrolysis of biotin-…-OH, TR-FRET read-out) in test [6] amounted to 10 nM.

Values taken from US20050164311A1, “Biological assay detection method” (priority 2001, published 2005).
